The values below come from paper PMC10663459.

The target in assay [1] is fusion peptide V1 (ITC peptide). Briefly: ITC. The conditions noted are these: parent: est. 33; read off a plot.
Another assay addresses VRC34.01_combo1 Fab. In words: BLI. As to conditions: n = 3 independent experiments; parent: est. 1.0; read off a plot.
Assay [2] deals with BG505 SOSIP trimer with FP v3 (AIGLGAMF). Briefly: yeast display FACS sort with NGS. As to conditions: Round 3 high-affinity sort, read off a plot.
Assay [3] deals with BG505 SOSIP trimer with FP Thai (AVGIGAMI). In words: yeast display FACS sort with NGS. The conditions noted are these: Round 3 high-affinity sort, read off a plot.
In assay [4] the target is fusion peptide FP_v1 (V1: […]) (HIV-1). In words: ITC. (In general: Isothermal titration calorimetry measures the heat released or taken up as one component is titrated into another.)
Assay [5] addresses fusion peptide V1 (ITC peptide) (HIV-1). Briefly: ITC.
The target in assay [6] is BG505 SOSIP trimer with FP v1 ([…]). In words: yeast display FACS sort with NGS. As to conditions: Round 3 high-affinity sort, VH-SSM library; parent: est. 1.8; read off a plot.
Where [7] appears, read: VH-SSM library, parent: est. 1.4.
Setting [8] is: VL-SSM library, parent: est. 0.4.

For the substance VRC34.01 (template antibody), IgG H:E2K, the Kd (as a rule, the free concentration of one partner at which half of the binding sites on the other are occupied at equilibrium, for simple one-to-one binding) in assay [1] was determined as 27 nM.

For “His-tagged fusion peptide (residue 512-521), wild type (BLI peptide) G514A”, the ratio to parent with VRC34.01_combo1 Fab was 0.97.

VRC34.01 Fab H:T59Y: the enrichment in assay [2] (setting [7]) turned out to be 2500.

VRC34.01 Fab L:D1Y: the enrichment in assay [3] (setting [8]) worked out at 580.

“His-tagged fusion peptide (residue 512-521), wild type (BLI peptide) I515A”: the ratio to parent in the assay with VRC34.01_combo1 Fab was 0.12.

Turning to “His-tagged fusion peptide (residue 512-521), wild type (BLI peptide) A512G”, the ratio to parent in the assay with VRC34.01_combo1 Fab turned out to be 0.88.

With VRC34.01-HC-T59F (antibody), in assay [4], the Kd came to 7.7 nM and the stoichiometry N (usually a count of units in the complex or per binding partner) turned out to be 0.8.

“VRC34.01_combo1 (VH_E2K_T59F), IgG (antibody)” yielded a fold better binding than VRC34.01 in assay [5] of 6 fold.

As for VRC34.01 VH_T59F, IgG (antibody), the fold higher affinity than VRC34.01 in assay [5] came out at 4 fold.

For the substance VRC34.01 Fab H:A33P, the enrichment in assay [2] (setting [7]) worked out at 55.

Turning to “His-tagged fusion peptide (residue 512-521), wild type (BLI peptide) A517G”, the ratio to parent with VRC34.01_combo1 Fab was 0.97.

Take “His-tagged fusion peptide (residue 512-521), wild type (BLI peptide) V513A”: the ratio to parent with VRC34.01_combo1 Fab came out at 0.47.

Consider VRC34.01-HC-E2K (antibody), for which the Kd in assay [4] was 28 nM.

With “His-tagged fusion peptide (residue 512-521), wild type (BLI peptide) V518A”, the ratio to parent in the assay with VRC34.01_combo1 Fab was found to be 0.97.

“VRC34.01 (template antibody), IgG H:E2K; H:A33P; H:T59F”: in assay [1], the equilibrium dissociation constant (Kd) is 2.2 nM.

As to VRC34.01 (template antibody), IgG, in assay [5], the Kd is 33 nM.

On to VRC34.01 Fab H:T59F, for which the enrichment in assay [2] (setting [7]) was found to be 480.

On to “His-tagged fusion peptide (residue 512-521), wild type (BLI peptide) V513G”, for which, in the assay with VRC34.01_combo1 Fab, the ratio to parent stood at 0.01.

As for VRC34.01 Fab L:S92T, the enrichment in assay [2] (VL-SSM library, parent: est. 1.7) was determined as 110; in assay [3] (setting [8]) it was 440.

Regarding “His-tagged fusion peptide (residue 512-521), wild type (BLI peptide) G516A”, the ratio to parent in the assay with VRC34.01_combo1 Fab was 0.14.

For the substance VRC34.01 Fab H:K12A, the enrichment in assay [3] (VH-SSM library, parent: est. 0.7) is 450.

Consider “His-tagged fusion peptide (residue 512-521), wild type (BLI peptide) I515G”, for which the ratio to parent with VRC34.01_combo1 Fab amounted to 0.01.

On to VRC34.01 Fab H:T58Q, for which the enrichment in assay [6] was 400.

For the substance “His-tagged fusion peptide (residue 512-521), wild type (BLI peptide) V518G”, the ratio to parent with VRC34.01_combo1 Fab was 0.83.

For the substance “VRC34.01 (template antibody), IgG H:T59F”, in assay [1], the dissociation constant (Kd) stood at 7.5 nM.

On to “His-tagged fusion peptide (residue 512-521), wild type (BLI peptide) F519G”, for which the ratio to parent in the assay with VRC34.01_combo1 Fab came out at 0.82.
